Tests used:
[1] = target: Grb2 SH2 (UniProt P62993); test: SH2 binding enrichment of the phosphorylated peptide, bacterial display (enrichment ratio); higher = better substrate or ligand; peptides without Tyr show the background
[2] = target: c-Src SH2; test: as above
[3] = target: SHP2-C SH2; test: as above
[4] = target: Hck (UniProt P08631); test: phosphorylation enrichment, bacterial display (enrichment ratio); higher = better substrate or ligand; peptides without Tyr show the background
[5] = test system: c-Src; test: as above
[6] = target: Fyn (UniProt P06241); test: as above
Fyn, sequence (P06241 whole entry, looked up): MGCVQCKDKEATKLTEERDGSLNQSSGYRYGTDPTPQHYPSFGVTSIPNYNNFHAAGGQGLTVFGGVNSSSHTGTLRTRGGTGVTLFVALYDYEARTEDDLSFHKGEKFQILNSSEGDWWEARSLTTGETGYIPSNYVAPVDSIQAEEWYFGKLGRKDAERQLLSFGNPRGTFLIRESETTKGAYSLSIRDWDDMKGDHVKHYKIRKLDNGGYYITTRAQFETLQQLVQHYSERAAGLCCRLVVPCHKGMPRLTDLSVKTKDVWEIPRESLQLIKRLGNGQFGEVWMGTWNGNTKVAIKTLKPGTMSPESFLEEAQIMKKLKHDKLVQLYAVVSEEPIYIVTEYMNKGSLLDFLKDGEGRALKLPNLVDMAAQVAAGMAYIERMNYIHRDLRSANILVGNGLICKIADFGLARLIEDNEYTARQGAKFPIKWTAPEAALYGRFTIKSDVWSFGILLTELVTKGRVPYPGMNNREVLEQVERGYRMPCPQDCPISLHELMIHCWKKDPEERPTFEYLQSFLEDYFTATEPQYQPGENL

[7] = test system: c-Abl (mouse); test: as above
[8] = target: Jak2 (UniProt O60674); test: as above
[9] = target: Fes (UniProt P07332); test: as above
Fes, sequence (P07332 whole entry, looked up): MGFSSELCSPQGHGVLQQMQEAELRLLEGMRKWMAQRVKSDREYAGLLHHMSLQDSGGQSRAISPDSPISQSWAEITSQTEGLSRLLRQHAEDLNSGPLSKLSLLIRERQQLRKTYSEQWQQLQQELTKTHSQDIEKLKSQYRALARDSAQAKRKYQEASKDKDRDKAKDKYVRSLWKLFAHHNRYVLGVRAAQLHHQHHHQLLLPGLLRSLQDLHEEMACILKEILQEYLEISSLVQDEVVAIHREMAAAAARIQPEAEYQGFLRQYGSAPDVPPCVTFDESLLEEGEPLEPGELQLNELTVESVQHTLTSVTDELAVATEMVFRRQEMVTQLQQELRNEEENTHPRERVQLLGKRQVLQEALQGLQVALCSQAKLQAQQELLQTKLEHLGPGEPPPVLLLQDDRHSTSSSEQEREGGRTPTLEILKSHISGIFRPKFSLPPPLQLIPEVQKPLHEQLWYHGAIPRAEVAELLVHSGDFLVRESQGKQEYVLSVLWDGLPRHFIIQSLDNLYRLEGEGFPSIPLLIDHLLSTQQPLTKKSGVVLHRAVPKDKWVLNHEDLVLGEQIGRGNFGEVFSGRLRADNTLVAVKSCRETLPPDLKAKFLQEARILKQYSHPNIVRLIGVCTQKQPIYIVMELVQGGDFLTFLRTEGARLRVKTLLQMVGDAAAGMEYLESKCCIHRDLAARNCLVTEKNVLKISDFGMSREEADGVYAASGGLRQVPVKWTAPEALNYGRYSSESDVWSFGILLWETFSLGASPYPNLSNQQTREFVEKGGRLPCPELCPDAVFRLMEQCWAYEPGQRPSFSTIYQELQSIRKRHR

[10] = target: EPHB1 (UniProt P54762); test: as above
[11] = target: FGFR3 (UniProt P22607); test: as above
FGFR3, sequence (P22607 whole entry, looked up): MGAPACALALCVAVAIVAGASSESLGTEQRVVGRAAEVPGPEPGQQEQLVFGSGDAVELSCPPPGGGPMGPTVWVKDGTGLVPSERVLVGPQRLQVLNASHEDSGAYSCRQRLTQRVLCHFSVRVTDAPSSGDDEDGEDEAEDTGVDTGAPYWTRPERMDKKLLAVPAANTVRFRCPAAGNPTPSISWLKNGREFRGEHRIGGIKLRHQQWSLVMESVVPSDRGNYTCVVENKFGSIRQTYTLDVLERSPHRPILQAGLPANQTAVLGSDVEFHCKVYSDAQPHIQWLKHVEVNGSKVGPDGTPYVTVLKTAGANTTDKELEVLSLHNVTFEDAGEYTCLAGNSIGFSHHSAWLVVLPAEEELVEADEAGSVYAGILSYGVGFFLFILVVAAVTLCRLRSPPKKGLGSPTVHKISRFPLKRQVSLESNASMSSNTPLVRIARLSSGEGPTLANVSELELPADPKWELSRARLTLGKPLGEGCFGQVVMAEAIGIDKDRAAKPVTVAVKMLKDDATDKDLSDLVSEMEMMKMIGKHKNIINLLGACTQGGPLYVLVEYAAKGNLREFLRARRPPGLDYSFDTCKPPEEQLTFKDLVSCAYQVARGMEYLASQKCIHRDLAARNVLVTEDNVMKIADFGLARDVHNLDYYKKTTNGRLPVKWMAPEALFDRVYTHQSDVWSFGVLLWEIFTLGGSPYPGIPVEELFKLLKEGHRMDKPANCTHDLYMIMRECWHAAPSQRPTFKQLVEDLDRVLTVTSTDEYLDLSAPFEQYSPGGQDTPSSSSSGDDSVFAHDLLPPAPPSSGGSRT

[12] = target: EPHB2 (UniProt P29323); test: as above
[13] = target: FGFR1 (UniProt P11362); test: as above
FGFR1, sequence (P11362 whole entry, looked up): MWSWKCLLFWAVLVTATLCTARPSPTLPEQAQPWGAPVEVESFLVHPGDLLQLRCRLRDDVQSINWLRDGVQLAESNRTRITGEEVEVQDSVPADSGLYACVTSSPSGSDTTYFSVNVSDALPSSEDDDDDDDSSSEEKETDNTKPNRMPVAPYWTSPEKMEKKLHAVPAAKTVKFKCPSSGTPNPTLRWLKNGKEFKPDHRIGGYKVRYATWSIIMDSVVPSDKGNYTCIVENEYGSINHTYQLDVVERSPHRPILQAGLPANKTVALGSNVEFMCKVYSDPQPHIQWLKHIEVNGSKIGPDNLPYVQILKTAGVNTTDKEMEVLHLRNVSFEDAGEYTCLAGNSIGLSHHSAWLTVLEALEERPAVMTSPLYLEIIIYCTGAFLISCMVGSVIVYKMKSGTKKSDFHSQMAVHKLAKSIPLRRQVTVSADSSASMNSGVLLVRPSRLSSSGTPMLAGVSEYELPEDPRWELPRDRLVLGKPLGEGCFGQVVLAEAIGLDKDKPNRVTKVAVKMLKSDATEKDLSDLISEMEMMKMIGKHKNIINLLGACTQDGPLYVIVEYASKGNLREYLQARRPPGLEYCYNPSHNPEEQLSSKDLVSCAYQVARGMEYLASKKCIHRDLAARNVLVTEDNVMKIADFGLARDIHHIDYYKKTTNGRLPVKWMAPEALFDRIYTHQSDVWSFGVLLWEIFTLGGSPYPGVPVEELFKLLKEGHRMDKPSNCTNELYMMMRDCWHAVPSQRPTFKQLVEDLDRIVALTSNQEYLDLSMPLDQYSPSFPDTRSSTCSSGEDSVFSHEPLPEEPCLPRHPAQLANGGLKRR

[14] = target: MERTK (UniProt Q12866); test: as above
MERTK, sequence (Q12866 whole entry, looked up): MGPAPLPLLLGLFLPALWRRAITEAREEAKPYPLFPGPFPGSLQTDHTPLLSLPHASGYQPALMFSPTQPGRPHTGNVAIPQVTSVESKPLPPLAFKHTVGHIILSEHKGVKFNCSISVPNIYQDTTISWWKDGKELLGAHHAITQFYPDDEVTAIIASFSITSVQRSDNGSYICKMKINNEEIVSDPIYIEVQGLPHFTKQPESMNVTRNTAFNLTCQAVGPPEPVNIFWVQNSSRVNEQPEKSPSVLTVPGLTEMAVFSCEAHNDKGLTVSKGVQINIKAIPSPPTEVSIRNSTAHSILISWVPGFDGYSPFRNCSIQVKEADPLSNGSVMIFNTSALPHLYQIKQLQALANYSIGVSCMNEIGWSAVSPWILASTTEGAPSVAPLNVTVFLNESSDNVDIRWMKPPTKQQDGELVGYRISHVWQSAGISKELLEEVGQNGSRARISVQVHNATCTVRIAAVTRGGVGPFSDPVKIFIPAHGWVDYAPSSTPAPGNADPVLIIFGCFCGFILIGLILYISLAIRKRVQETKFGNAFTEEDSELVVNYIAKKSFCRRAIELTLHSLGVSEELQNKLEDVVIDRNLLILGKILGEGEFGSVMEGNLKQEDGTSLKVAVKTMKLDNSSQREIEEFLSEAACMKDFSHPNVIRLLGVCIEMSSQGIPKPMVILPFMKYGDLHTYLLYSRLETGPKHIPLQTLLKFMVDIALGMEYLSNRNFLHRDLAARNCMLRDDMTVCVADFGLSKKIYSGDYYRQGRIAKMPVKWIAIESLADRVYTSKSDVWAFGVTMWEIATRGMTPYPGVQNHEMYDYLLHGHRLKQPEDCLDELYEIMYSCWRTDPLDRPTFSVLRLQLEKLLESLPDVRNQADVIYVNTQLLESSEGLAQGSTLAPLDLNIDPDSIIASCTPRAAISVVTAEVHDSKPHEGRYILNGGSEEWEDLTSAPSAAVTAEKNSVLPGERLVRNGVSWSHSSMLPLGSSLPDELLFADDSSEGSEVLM

[15] = test system: AncSZ; test: as above
[16] = test system: Fer (mouse); test: as above
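Throughout, for SH2 binding enrichment of the phosphorylated peptide, bacterial display: peptide library displayed on the E. coli surface as eCPX fusions, selected cells deep-sequenced, score is each peptide's frequency after selection divided by its frequency in the input.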
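Throughout, for phosphorylation enrichment, bacterial display: 11-residue human phosphosite peptides and single-mutation variants displayed on the E. coli surface, counted by deep sequencing, each peptide's frequency after selection divided by its frequency in the unselected input library; frequency after pTyr selection over input frequency; kinase dosed for 20-30% of maximal phosphorylation in three min.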

Grb2 SH2, sequence (P62993 whole entry, looked up): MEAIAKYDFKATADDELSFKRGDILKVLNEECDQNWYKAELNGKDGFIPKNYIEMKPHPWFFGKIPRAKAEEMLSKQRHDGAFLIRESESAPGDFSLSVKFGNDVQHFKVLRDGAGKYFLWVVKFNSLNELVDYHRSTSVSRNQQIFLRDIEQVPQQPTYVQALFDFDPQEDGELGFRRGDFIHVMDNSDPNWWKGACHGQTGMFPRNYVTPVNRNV
Hck, sequence (P08631 whole entry, looked up): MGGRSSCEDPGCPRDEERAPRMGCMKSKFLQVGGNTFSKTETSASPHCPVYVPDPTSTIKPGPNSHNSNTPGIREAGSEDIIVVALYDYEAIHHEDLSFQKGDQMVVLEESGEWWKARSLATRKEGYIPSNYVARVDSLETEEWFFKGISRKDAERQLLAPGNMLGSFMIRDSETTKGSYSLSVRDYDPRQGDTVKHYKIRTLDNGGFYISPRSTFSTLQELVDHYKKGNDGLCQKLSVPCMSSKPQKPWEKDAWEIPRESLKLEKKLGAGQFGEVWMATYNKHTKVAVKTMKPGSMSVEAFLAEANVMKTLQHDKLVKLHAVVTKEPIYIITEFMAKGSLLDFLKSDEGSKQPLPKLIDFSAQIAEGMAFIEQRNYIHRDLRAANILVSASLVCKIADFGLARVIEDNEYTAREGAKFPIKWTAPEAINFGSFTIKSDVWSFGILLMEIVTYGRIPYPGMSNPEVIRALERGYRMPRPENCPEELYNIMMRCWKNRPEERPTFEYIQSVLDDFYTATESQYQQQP

Sequence	SH2 binding enrichment [1]	SH2 binding enrichment [2]	SH2 binding enrichment [3]	phosphorylation enrichment [4]	phosphorylation enrichment [5]	phosphorylation enrichment [6]	phosphorylation enrichment [7]	phosphorylation enrichment [8]	phosphorylation enrichment [9]	phosphorylation enrichment [10]	phosphorylation enrichment [11]	phosphorylation enrichment [12]	phosphorylation enrichment [13]	phosphorylation enrichment [14]	phosphorylation enrichment [15]	phosphorylation enrichment [16]
AVSHRYDLGGL [QPRT_Y162_A158V]	0.849	0.6	0.76	0.415	0.385	0.337	0.379	0.467	0.527	0.403	0.42	0.524	0.347	0.379	0.515	0.344
CKLFQYFLDHL [ATRX_Y1849_YF]	1.57	1.34	1.41	0.585	0.524	0.536	0.933	1.3	1.41	0.693	0.873	0.605	0.647	0.526	1.37	0.635
CKSVHYDLVFL [COL22A1_Y37]	0.775	0.986	0.613	0.632	0.528	0.554	0.93	1.19	1.38	0.806	0.866	0.739	0.532	1.56	1.24	9.46
CLLHCYFSQIR [MCM3AP_Y873]	1.93	1.53	1.65	0.413	0.368	0.327	0.667	1.21	1.32	0.497	0.867	0.428	0.518	0.401	0.856	0.391
CNNFICGGCRG [SPINT2_Y163_Y163C]	0.968	0.6	0.757	0.504	0.415	0.519	0.697	0.87	0.902	0.466	0.644	0.515	0.5	0.488	0.963	0.443
CPEARYNRSPI [PTAR1_Y42]	0.618	0.522	0.483	0.492	0.399	0.441	0.55	0.641	0.859	0.485	0.617	0.458	0.419	0.433	0.699	0.435
CPFNLYAAQLS [HGD_Y40_E42A_YF]	0.726	0.537	0.811	1.09	0.961	0.648	0.874	1.02	1.29	1.79	0.816	1.24	0.573	1.7	1.2	0.76
CQASLYPSNHD [LRIG1_Y996_G993A]	0.781	0.475	0.694	0.595	0.449	0.571	0.798	1.01	1.3	0.721	0.792	0.624	0.577	0.42	1.08	0.524
CSHMFYGKQCC [ADAMTS16_Y1211_K1209M]	1.14	0.772	0.827	0.519	0.573	0.653	0.713	0.852	1.01	0.587	0.606	0.543	0.464	0.485	0.839	0.539
CTLLPYYSAPV [DGKE_Y269_R273P]	0.71	1.53	0.54	1.14	1.25	0.792	1.65	1.54	1.71	2.04	1.3	2.29	1.43	4.17	2.02	2.17
CTNIHYNFMCN [TP53_Y234_T231N_YF]	1.62	2.21	1.62	0.426	0.562	0.456	0.655	0.693	0.974	0.436	0.714	0.597	0.554	0.423	0.8	0.481
CTTIHYHFMCN [TP53_Y234_N235H_YF]	1.65	1.67	2.26	0.48	0.488	0.542	0.785	0.902	1.06	0.549	0.729	0.637	0.599	0.441	1.1	0.632
CTTIHYTYMCN [TP53_Y234_N235T]	1.52	4.85	6.45	0.524	0.549	0.496	0.672	1.04	1.07	0.608	0.704	0.761	0.724	0.517	1.08	0.591
CYSSEYHYVGG [CTSC_Y345_Y340C]	0.884	2.04	0.943	2.29	2.02	1.57	2.79	1.77	1.1	5.54	9.68	5.91	13	4.76	4.45	1.26
DAGTDYVGISC [FREM2_Y2061_R2066C]	0.991	0.658	0.898	0.478	0.546	0.522	0.688	0.732	0.961	0.578	0.959	0.619	1.05	0.4	1.31	0.558
